Experimental data reported in patent US20220056141A1 (DEUTSCHES KREBSFORSCHUNGSZENTRUM STIFTUNG DES OFFENTLICHEN …, published 2022).

Columns and labels:
[1] = molecular target: T1, His tagged, recombinant FLT3 protein (Sino Biologicals) (human, UniProt P36888 27-541, limits assumed); experiment: SPR (Biacore X); antibody captured on protein A chip, His-tagged recombinant FLT3 in solution
T1 construct: Bought protein; also called soluble recombinant FLT3 protein; not shown: His tag
T1 sequence (looked up): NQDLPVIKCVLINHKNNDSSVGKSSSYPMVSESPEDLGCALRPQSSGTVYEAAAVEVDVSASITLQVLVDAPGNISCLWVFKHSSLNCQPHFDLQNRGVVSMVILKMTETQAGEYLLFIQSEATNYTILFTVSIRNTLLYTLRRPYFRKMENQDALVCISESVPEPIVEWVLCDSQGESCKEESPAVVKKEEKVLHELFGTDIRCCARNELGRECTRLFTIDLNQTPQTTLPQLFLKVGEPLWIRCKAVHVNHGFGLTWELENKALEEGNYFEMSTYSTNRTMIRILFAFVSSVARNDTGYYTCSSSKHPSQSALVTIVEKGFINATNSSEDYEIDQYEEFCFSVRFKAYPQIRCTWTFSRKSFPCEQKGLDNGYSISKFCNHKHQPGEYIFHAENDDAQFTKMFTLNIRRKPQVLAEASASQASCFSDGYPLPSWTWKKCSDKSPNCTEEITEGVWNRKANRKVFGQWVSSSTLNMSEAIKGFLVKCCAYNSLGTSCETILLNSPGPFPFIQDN
Protocol: FIG. 3 depicts binding of different CC-2 variants to soluble recombinant FLT3 protein. Respective antibody variants were immobilized to a Biacore chip coated with protein A and binding of His tagged, recombinant FLT3 protein (Sino Biologicals) was determined using a Biacore X instrument (GE Healthcare). Shown are the results of various mutated variants of the FLT3 antigen binding domain (V1 to V5).
In FIG. 3 the binding of different FLT3 binding domain variants V1 to V5 as indicated above was tested for their dissociation constant using a soluble recombinant FLT3 protein. Respective antibody variants were immobilized to a Biacore chip coated with protein A and binding of His tagged, recombinant FLT3 protein (Sino Biologicals) was determined using a Biacore X instrument (GE Healthcare).

[2] = molecular target: T2, FLT3 on Nalm16 cells (human, UniProt P36888 27-993); experiment: flow cytometry (row 'EC50, FACS binding' under the bars; binding to NALM16 cells of FIG. 4)
T2 construct: whole, on cells; Endogenous FLT3 of the NALM16 leukemia cell line; also called NALM16 (FLT3+); NALM-16 cells expressing FLT3
T2 sequence (looked up): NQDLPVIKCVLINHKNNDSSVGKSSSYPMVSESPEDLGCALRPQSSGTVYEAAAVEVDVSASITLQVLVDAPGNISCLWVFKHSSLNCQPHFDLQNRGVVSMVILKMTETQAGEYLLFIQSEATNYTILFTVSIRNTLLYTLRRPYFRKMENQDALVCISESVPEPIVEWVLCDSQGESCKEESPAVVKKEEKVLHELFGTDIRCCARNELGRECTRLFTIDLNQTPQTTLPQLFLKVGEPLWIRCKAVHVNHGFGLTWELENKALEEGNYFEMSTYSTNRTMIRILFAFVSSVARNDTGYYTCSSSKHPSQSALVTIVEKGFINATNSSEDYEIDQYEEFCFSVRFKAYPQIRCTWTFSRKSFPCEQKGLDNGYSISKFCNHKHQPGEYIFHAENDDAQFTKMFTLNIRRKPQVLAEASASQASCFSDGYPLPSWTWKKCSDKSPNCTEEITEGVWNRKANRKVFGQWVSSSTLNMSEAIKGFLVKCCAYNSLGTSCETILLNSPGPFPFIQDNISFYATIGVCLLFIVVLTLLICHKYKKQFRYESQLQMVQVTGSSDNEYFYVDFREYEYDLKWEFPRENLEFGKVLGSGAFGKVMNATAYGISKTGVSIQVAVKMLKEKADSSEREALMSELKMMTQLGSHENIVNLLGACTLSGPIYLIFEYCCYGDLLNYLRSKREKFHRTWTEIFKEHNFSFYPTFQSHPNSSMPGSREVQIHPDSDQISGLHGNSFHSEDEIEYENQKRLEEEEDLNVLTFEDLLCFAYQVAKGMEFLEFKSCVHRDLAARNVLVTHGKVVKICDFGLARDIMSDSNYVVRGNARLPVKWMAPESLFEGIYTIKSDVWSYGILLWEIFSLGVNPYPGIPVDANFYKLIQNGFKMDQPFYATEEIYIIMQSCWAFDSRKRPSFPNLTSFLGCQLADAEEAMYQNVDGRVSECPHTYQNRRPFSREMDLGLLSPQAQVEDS
Protocol: (§1) In addition, antibody binding affinity was also tested using binding of the antibody to its target(s) as expressed on cells. Analyzed is the binding of CC-2 variants to Nalm16 cells expressing FLT3 (FIG. 4) or Jurkat cells expressing CD3 (FIG. 6). Variants V1 to V9 (with V6 being V6-V6) were produced after transient transfection of CHO cells using the insert sequences listed above. The antibodies were purified by protein A affinity- and size exclusion-chromatography. […] To measure antibody binding to FLT3 and CD3 NALM16 (FLT3+) and Jurkat (CD3+) cells were incubated with the respective variants for 30 min, washed, stained with a goat anti human Fcγ-specific and PE-conjugated secondary antibody (Jackson Immuno Research), washed again and analyzed by flow cytometry (FACSCalibur, BD Biosciences).

[3] = molecular target: T2, FLT3 on Nalm16 cells; experiment: flow cytometry on NALM16 cells (FLT3+), 30 min incubation, PE-conjugated goat anti-human Fc-gamma secondary antibody
Protocol: as §1

[4] = molecular target: T3, CD3 on Jurkat cells (human, UniProt P07766 23-207); experiment: flow cytometry (value under the bar; by the legend the EC50 of the binding to Jurkat cells of FIG. 6)
T3 construct: whole, on cells; also called Jurkat (CD3+); human cluster of differentiation 3 (CD3) antigen
Protocol: as §1

[5] = molecular target: T3, CD3 on Jurkat cells; experiment: flow cytometry on Jurkat cells (CD3+), 30 min incubation, PE-conjugated goat anti-human Fc-gamma secondary antibody
Protocol: as §1

T3 sequence (P07766 23-207): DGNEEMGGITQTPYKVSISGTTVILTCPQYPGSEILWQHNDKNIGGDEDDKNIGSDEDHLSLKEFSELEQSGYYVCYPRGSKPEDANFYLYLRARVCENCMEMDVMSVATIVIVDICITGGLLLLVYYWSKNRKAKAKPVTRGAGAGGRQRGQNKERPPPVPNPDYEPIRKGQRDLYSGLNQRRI

| Binder | Kd [1] [nM] | koff [1] [s⁻¹] | kon [1] [M⁻¹ s⁻¹] | EC50 [2] [nM] | EC50 (read off the curve) [3] [nM] | EC50 [4] [nM] | EC50 (read off the curve) [5] [nM] |
| --- | --- | --- | --- | --- | --- | --- | --- |
| bispecific FLT3xCD3 IgGsc antibody V3-V6 (CC-2 variant 3) (bispecific antibody, Fc-attenuated IgGsc format; also called Version 3; CC-2 V3) heavy: QVQLVQSGAEVKKPGASVKVSCKASGYTFTSYWMHWVRQAPGQGLEWIGEIDPSDSYKDYNQKFKDRVTMTRDTSTSTVYMELSSLRSEDTAVYYCARAITTTPFDFWGQGTTVTVSSASTKGPSVFPLAPSSKSTSGGTAALGCLVKDYFPEPVTVSWNSGALTSGVHTFPAVLQSSGLYSLSSVVTVPSSSLGTQTYICNVNHKPSNTKVDKKVEPKSCDKTHTCPPCPAPPVAGPSVFLFPPKPKDTLMISRTPEVTCVVVGVSHEDPEVKFNWYVDGVEVHNAKTKPREEQYNSTYRVVSVLTVLHQDWLNGKEYKCKVSNKQLPSPIEKTISKAKGQPREPQVYTLPPSRDELTKNQVSLTCLVKGFYPSDIAVEWESNGQPENNYKTTPPVLDSDGSFFLYSKLTVDKSRWQQGNVFSCSVMHEALHNHYTQKSLSLSPGKSGDIQMTQSPSSLSASVGDRVTITCRASQDIRNYLNWYQQKPGKAPKLLIYYTSRLESGVPSRFSGSGSGTDYTLTISSLQPEDFATYYCQQGNTLPWTFGQGTKVEIKGGGGSGGGGSGGGGSEVQLVESGGGLVQPGGSLRLSCAASGYSFTGYTMNWVRQAPGKGLEWVALINPYKGVSTYNQKFKDRFTISVDKSKNTAYLQMNSLRAEDTAVYYCARSGYYGDSDWYFDVWGQGTLVTVSS light: not shown | 87000 | 0.0233 | 276 | 8 | ~8 |  |  |
| bispecific FLT3xCD3 IgGsc antibody V4-V6 (CC-2 variant 4) (bispecific antibody, Fc-attenuated IgGsc format; also called Version 4; CC-2 V4) heavy: QVQLVQSGAEVKKPGASVKVSCKASGYTFTSYWMHWVRQAPGQGLEWIGEIDPSDSYKDYNQKFKDRVTMTRDTSTSTVYMELSSLRSEDTAVYYCARAITTTPFDFWGQGTTVTVSSASTKGPSVFPLAPSSKSTSGGTAALGCLVKDYFPEPVTVSWNSGALTSGVHTFPAVLQSSGLYSLSSVVTVPSSSLGTQTYICNVNHKPSNTKVDKKVEPKSCDKTHTCPPCPAPPVAGPSVFLFPPKPKDTLMISRTPEVTCVVVGVSHEDPEVKFNWYVDGVEVHNAKTKPREEQYNSTYRVVSVLTVLHQDWLNGKEYKCKVSNKQLPSPIEKTISKAKGQPREPQVYTLPPSRDELTKNQVSLTCLVKGFYPSDIAVEWESNGQPENNYKTTPPVLDSDGSFFLYSKLTVDKSRWQQGNVFSCSVMHEALHNHYTQKSLSLSPGKSGDIQMTQSPSSLSASVGDRVTITCRASQDIRNYLNWYQQKPGKAPKLLIYYTSRLESGVPSRFSGSGSGTDYTLTISSLQPEDFATYYCQQGNTLPWTFGQGTKVEIKGGGGSGGGGSGGGGSEVQLVESGGGLVQPGGSLRLSCAASGYSFTGYTMNWVRQAPGKGLEWVALINPYKGVSTYNQKFKDRFTISVDKSKNTAYLQMNSLRAEDTAVYYCARSGYYGDSDWYFDVWGQGTLVTVSS light: not shown | 480 | 0.00887 | 18800 | 5 | ~5 |  |  |
| bispecific FLT3xCD3 IgGsc antibody V5-V6 (CC-2 variant 5) (bispecific antibody, Fc-attenuated IgGsc format; also called Version 5; CC-2 V5) heavy: QVQLVQSGAEVKKPGGSLRLSCAASGYTFTSYWMHWVRQAPGQGLEWIGEIDPSDSYKDYNQKFKDRVTISRDTSKNTLYLQLSSLRAEDTAVYYCARAITTTPFDFWGQGTLVTVSSASTKGPSVFPLAPSSKSTSGGTAALGCLVKDYFPEPVTVSWNSGALTSGVHTFPAVLQSSGLYSLSSVVTVPSSSLGTQTYICNVNHKPSNTKVDKKVEPKSCDKTHTCPPCPAPPVAGPSVFLFPPKPKDTLMISRTPEVTCVVVGVSHEDPEVKFNWYVDGVEVHNAKTKPREEQYNSTYRVVSVLTVLHQDWLNGKEYKCKVSNKQLPSPIEKTISKAKGQPREPQVYTLPPSRDELTKNQVSLTCLVKGFYPSDIAVEWESNGQPENNYKTTPPVLDSDGSFFLYSKLTVDKSRWQQGNVFSCSVMHEALHNHYTQKSLSLSPGKSGDIQMTQSPSSLSASVGDRVTITCRASQDIRNYLNWYQQKPGKAPKLLIYYTSRLESGVPSRFSGSGSGTDYTLTISSLQPEDFATYYCQQGNTLPWTFGQGTKVEIKGGGGSGGGGSGGGGSEVQLVESGGGLVQPGGSLRLSCAASGYSFTGYTMNWVRQAPGKGLEWVALINPYKGVSTYNQKFKDRFTISVDKSKNTAYLQMNSLRAEDTAVYYCARSGYYGDSDWYFDVWGQGTLVTVSS light: not shown | 160 | 0.00449 | 29600 | 1.3 | ~1 |  |  |
| bispecific FLT3xCD3 IgGsc antibody V6-V9 (bispecific antibody, Fc-attenuated IgGsc format; also called CC-2 V9) heavy: QVQLQQPGAELVKPGASLKLSCKSSGYTFTSYWMHWVRQRPGHGLEWIGEIDPSDSYKDYNQKFKDKATLTVDRSSNTAYMHLSSLTSDDSAVYYCARAITTTPFDFWGQGTTLTVSSASTKGPSVFPLAPSSKSTSGGTAALGCLVKDYFPEPVTVSWNSGALTSGVHTFPAVLQSSGLYSLSSVVTVPSSSLGTQTYICNVNHKPSNTKVDKKVEPKSCDKTHTCPPCPAPPVAGPSVFLFPPKPKDTLMISRTPEVTCVVVGVSHEDPEVKFNWYVDGVEVHNAKTKPREEQYNSTYRVVSVLTVLHQDWLNGKEYKCKVSNKQLPSPIEKTISKAKGQPREPQVYTLPPSRDELTKNQVSLTCLVKGFYPSDIAVEWESNGQPENNYKTTPPVLDSDGSFFLYSKLTVDKSRWQQGNVFSCSVMHEALHNHYTQKSLSLSPGKSGEVQLVESGGGLVQPGGSLRLSCAASGYSFTGYTMNWVRQAPGKGLEWVALINPYKGVSTYNQKFKDRFTISVDKSKNTAYLQMNSLRAEDTAVYYCARSGYYGDSDWYFDVWGQGTLVTVSSGGGGSGGGGSGGGGSDIQMTQSPSSLSASVGDRVTITCRASQDIRNYLNWYQQKPGKAPKLLIYYTSRLESGVPSRFSGSGSGTDYTLTISSLQPEDFATYYCQQGNTLPWTFGQGTKVEIK light: DIVLTQSPATLSVTPGDSVSLSCRASQSISNNLHWYQQKSHESPRLLIKYASQSISGIPSRFSGSGSGTDFTLSINSVETEDFGVYFCQQSNTWPYTFGGGTKLEIKRTVAAPSVFIFPPSDEQLKSGTASVVCLLNNFYPREAKVQWKVDNALQSGNSQESVTEQDSKDSTYSLSSTLTLSKADYEKHKVYACEVTHQGLSSPVTKSFNRGEC |  |  |  |  |  | 4.1 | ~5 |
